According to US20260001928A1 (CORTERIA PHARMACEUTICALS, priority 2022, published 2026):
*1 amine or outer side, *2 acyl side, *3 side chain or, on linkers, in order; H or OH if unused. Side-chain parts run from the residue outwards. [ ]: non-standard residue; d: D form. The star is where a group is joined. C20 diacid = O=C(O)CCCCCCCCCCCCCCCCCCC(=O)*; γGlu = O=C(O)[C@H](CCC(=O)[*:2])N[*:1]; Myristoyl = CCCCCCCCCCCCCC(=O)*; Lauroyl = CCCCCCCCCCCC(=O)*; Decanoyl = CCCCCCCCCC(=O)*; Pentanoyl = CCCCC(=O)*; Aib = CC(C)(N)C(=O)O

B1: SEQ ID NO 222 (peptide)
peptide: Pentanoyl-VLSLD[dV]PIKLK([γGlu-C20 diacid])KILLEQEKQKAQREQAETN[Aib]QILAQV-NH2
SMILES: CCCCC(=O)N[C@H](C(=O)N[C@@H](CC(C)C)C(=O)N[C@@H](CO)C(=O)N[C@@H](CC(C)C)C(=O)N[C@@H](CC(=O)O)C(=O)N[C@@H](C(=O)N1CCC[C@H]1C(=O)N[C@H](C(=O)N[C@@H](CCCCN)C(=O)N[C@@H](CC(C)C)C(=O)N[C@@H](CCCCNC(=O)CC[C@H](NC(=O)CCCCCCCCCCCCCCCCCCC(=O)O)C(=O)O)C(=O)N[C@@H](CCCCN)C(=O)N[C@H](C(=O)N[C@@H](CC(C)C)C(=O)N[C@@H](CC(C)C)C(=O)N[C@@H](CCC(=O)O)C(=O)N[C@@H](CCC(N)=O)C(=O)N[C@@H](CCC(=O)O)C(=O)N[C@@H](CCCCN)C(=O)N[C@@H](CCC(N)=O)C(=O)N[C@@H](CCCCN)C(=O)N[C@@H](C)C(=O)N[C@@H](CCC(N)=O)C(=O)N[C@@H](CCCNC(=N)N)C(=O)N[C@@H](CCC(=O)O)C(=O)N[C@@H](CCC(N)=O)C(=O)N[C@@H](C)C(=O)N[C@@H](CCC(=O)O)C(=O)N[C@H](C(=O)N[C@@H](CC(N)=O)C(=O)NC(C)(C)C(=O)N[C@@H](CCC(N)=O)C(=O)N[C@H](C(=O)N[C@@H](CC(C)C)C(=O)N[C@@H](C)C(=O)N[C@@H](CCC(N)=O)C(=O)N[C@H](C(N)=O)C(C)C)[C@@H](C)CC)[C@@H](C)O)[C@@H](C)CC)[C@@H](C)CC)C(C)C)C(C)C
B2: SEQ ID NO 225 (peptide)
peptide: Myristoyl-VLSLD[dV]PIKLK([γGlu-C20 diacid])KILLEQEKQKKQREQAETN[Aib]QILAQV-NH2
SMILES: CCCCCCCCCCCCCC(=O)N[C@H](C(=O)N[C@@H](CC(C)C)C(=O)N[C@@H](CO)C(=O)N[C@@H](CC(C)C)C(=O)N[C@@H](CC(=O)O)C(=O)N[C@@H](C(=O)N1CCC[C@H]1C(=O)N[C@H](C(=O)N[C@@H](CCCCN)C(=O)N[C@@H](CC(C)C)C(=O)N[C@@H](CCCCNC(=O)CC[C@H](NC(=O)CCCCCCCCCCCCCCCCCCC(=O)O)C(=O)O)C(=O)N[C@@H](CCCCN)C(=O)N[C@H](C(=O)N[C@@H](CC(C)C)C(=O)N[C@@H](CC(C)C)C(=O)N[C@@H](CCC(=O)O)C(=O)N[C@@H](CCC(N)=O)C(=O)N[C@@H](CCC(=O)O)C(=O)N[C@@H](CCCCN)C(=O)N[C@@H](CCC(N)=O)C(=O)N[C@@H](CCCCN)C(=O)N[C@@H](CCCCN)C(=O)N[C@@H](CCC(N)=O)C(=O)N[C@@H](CCCNC(=N)N)C(=O)N[C@@H](CCC(=O)O)C(=O)N[C@@H](CCC(N)=O)C(=O)N[C@@H](C)C(=O)N[C@@H](CCC(=O)O)C(=O)N[C@H](C(=O)N[C@@H](CC(N)=O)C(=O)NC(C)(C)C(=O)N[C@@H](CCC(N)=O)C(=O)N[C@H](C(=O)N[C@@H](CC(C)C)C(=O)N[C@@H](C)C(=O)N[C@@H](CCC(N)=O)C(=O)N[C@H](C(N)=O)C(C)C)[C@@H](C)CC)[C@@H](C)O)[C@@H](C)CC)[C@@H](C)CC)C(C)C)C(C)C
B3: SEQ ID NO 224 (peptide)
peptide: Lauroyl-VLSLD[dV]PIKLK([γGlu-C20 diacid])KILLEQEKQKKQREQAETN[Aib]QILAQV-NH2
SMILES: CCCCCCCCCCCC(=O)N[C@H](C(=O)N[C@@H](CC(C)C)C(=O)N[C@@H](CO)C(=O)N[C@@H](CC(C)C)C(=O)N[C@@H](CC(=O)O)C(=O)N[C@@H](C(=O)N1CCC[C@H]1C(=O)N[C@H](C(=O)N[C@@H](CCCCN)C(=O)N[C@@H](CC(C)C)C(=O)N[C@@H](CCCCNC(=O)CC[C@H](NC(=O)CCCCCCCCCCCCCCCCCCC(=O)O)C(=O)O)C(=O)N[C@@H](CCCCN)C(=O)N[C@H](C(=O)N[C@@H](CC(C)C)C(=O)N[C@@H](CC(C)C)C(=O)N[C@@H](CCC(=O)O)C(=O)N[C@@H](CCC(N)=O)C(=O)N[C@@H](CCC(=O)O)C(=O)N[C@@H](CCCCN)C(=O)N[C@@H](CCC(N)=O)C(=O)N[C@@H](CCCCN)C(=O)N[C@@H](CCCCN)C(=O)N[C@@H](CCC(N)=O)C(=O)N[C@@H](CCCNC(=N)N)C(=O)N[C@@H](CCC(=O)O)C(=O)N[C@@H](CCC(N)=O)C(=O)N[C@@H](C)C(=O)N[C@@H](CCC(=O)O)C(=O)N[C@H](C(=O)N[C@@H](CC(N)=O)C(=O)NC(C)(C)C(=O)N[C@@H](CCC(N)=O)C(=O)N[C@H](C(=O)N[C@@H](CC(C)C)C(=O)N[C@@H](C)C(=O)N[C@@H](CCC(N)=O)C(=O)N[C@H](C(N)=O)C(C)C)[C@@H](C)CC)[C@@H](C)O)[C@@H](C)CC)[C@@H](C)CC)C(C)C)C(C)C
B4: SEQ ID NO 223 (peptide)
peptide: Decanoyl-VLSLD[dV]PIKLK([γGlu-C20 diacid])KILLEQEKQKKQREQAETN[Aib]QILAQV-NH2
SMILES: CCCCCCCCCC(=O)N[C@H](C(=O)N[C@@H](CC(C)C)C(=O)N[C@@H](CO)C(=O)N[C@@H](CC(C)C)C(=O)N[C@@H](CC(=O)O)C(=O)N[C@@H](C(=O)N1CCC[C@H]1C(=O)N[C@H](C(=O)N[C@@H](CCCCN)C(=O)N[C@@H](CC(C)C)C(=O)N[C@@H](CCCCNC(=O)CC[C@H](NC(=O)CCCCCCCCCCCCCCCCCCC(=O)O)C(=O)O)C(=O)N[C@@H](CCCCN)C(=O)N[C@H](C(=O)N[C@@H](CC(C)C)C(=O)N[C@@H](CC(C)C)C(=O)N[C@@H](CCC(=O)O)C(=O)N[C@@H](CCC(N)=O)C(=O)N[C@@H](CCC(=O)O)C(=O)N[C@@H](CCCCN)C(=O)N[C@@H](CCC(N)=O)C(=O)N[C@@H](CCCCN)C(=O)N[C@@H](CCCCN)C(=O)N[C@@H](CCC(N)=O)C(=O)N[C@@H](CCCNC(=N)N)C(=O)N[C@@H](CCC(=O)O)C(=O)N[C@@H](CCC(N)=O)C(=O)N[C@@H](C)C(=O)N[C@@H](CCC(=O)O)C(=O)N[C@H](C(=O)N[C@@H](CC(N)=O)C(=O)NC(C)(C)C(=O)N[C@@H](CCC(N)=O)C(=O)N[C@H](C(=O)N[C@@H](CC(C)C)C(=O)N[C@@H](C)C(=O)N[C@@H](CCC(N)=O)C(=O)N[C@H](C(N)=O)C(C)C)[C@@H](C)CC)[C@@H](C)O)[C@@H](C)CC)[C@@H](C)CC)C(C)C)C(C)C
B5: SEQ ID NO 220 (peptide)
peptide: Pentanoyl-VLSLD[dV]PIKLK([γGlu-C20 diacid])KILLEQEKQK[Aib]QREQAETN[Aib]QILAQV-NH2
SMILES: CCCCC(=O)N[C@H](C(=O)N[C@@H](CC(C)C)C(=O)N[C@@H](CO)C(=O)N[C@@H](CC(C)C)C(=O)N[C@@H](CC(=O)O)C(=O)N[C@@H](C(=O)N1CCC[C@H]1C(=O)N[C@H](C(=O)N[C@@H](CCCCN)C(=O)N[C@@H](CC(C)C)C(=O)N[C@@H](CCCCNC(=O)CC[C@H](NC(=O)CCCCCCCCCCCCCCCCCCC(=O)O)C(=O)O)C(=O)N[C@@H](CCCCN)C(=O)N[C@H](C(=O)N[C@@H](CC(C)C)C(=O)N[C@@H](CC(C)C)C(=O)N[C@@H](CCC(=O)O)C(=O)N[C@@H](CCC(N)=O)C(=O)N[C@@H](CCC(=O)O)C(=O)N[C@@H](CCCCN)C(=O)N[C@@H](CCC(N)=O)C(=O)N[C@@H](CCCCN)C(=O)NC(C)(C)C(=O)N[C@@H](CCC(N)=O)C(=O)N[C@@H](CCCNC(=N)N)C(=O)N[C@@H](CCC(=O)O)C(=O)N[C@@H](CCC(N)=O)C(=O)N[C@@H](C)C(=O)N[C@@H](CCC(=O)O)C(=O)N[C@H](C(=O)N[C@@H](CC(N)=O)C(=O)NC(C)(C)C(=O)N[C@@H](CCC(N)=O)C(=O)N[C@H](C(=O)N[C@@H](CC(C)C)C(=O)N[C@@H](C)C(=O)N[C@@H](CCC(N)=O)C(=O)N[C@H](C(N)=O)C(C)C)[C@@H](C)CC)[C@@H](C)O)[C@@H](C)CC)[C@@H](C)CC)C(C)C)C(C)C
B6: SEQ ID NO 221 (peptide)
peptide: Pentanoyl-VLSLD[dV]PIKLK([γGlu-C20 diacid])KILLEQEAQKKQREQAETN[Aib]QILAQV-NH2
SMILES: CCCCC(=O)N[C@H](C(=O)N[C@@H](CC(C)C)C(=O)N[C@@H](CO)C(=O)N[C@@H](CC(C)C)C(=O)N[C@@H](CC(=O)O)C(=O)N[C@@H](C(=O)N1CCC[C@H]1C(=O)N[C@H](C(=O)N[C@@H](CCCCN)C(=O)N[C@@H](CC(C)C)C(=O)N[C@@H](CCCCNC(=O)CC[C@H](NC(=O)CCCCCCCCCCCCCCCCCCC(=O)O)C(=O)O)C(=O)N[C@@H](CCCCN)C(=O)N[C@H](C(=O)N[C@@H](CC(C)C)C(=O)N[C@@H](CC(C)C)C(=O)N[C@@H](CCC(=O)O)C(=O)N[C@@H](CCC(N)=O)C(=O)N[C@@H](CCC(=O)O)C(=O)N[C@@H](C)C(=O)N[C@@H](CCC(N)=O)C(=O)N[C@@H](CCCCN)C(=O)N[C@@H](CCCCN)C(=O)N[C@@H](CCC(N)=O)C(=O)N[C@@H](CCCNC(=N)N)C(=O)N[C@@H](CCC(=O)O)C(=O)N[C@@H](CCC(N)=O)C(=O)N[C@@H](C)C(=O)N[C@@H](CCC(=O)O)C(=O)N[C@H](C(=O)N[C@@H](CC(N)=O)C(=O)NC(C)(C)C(=O)N[C@@H](CCC(N)=O)C(=O)N[C@H](C(=O)N[C@@H](CC(C)C)C(=O)N[C@@H](C)C(=O)N[C@@H](CCC(N)=O)C(=O)N[C@H](C(N)=O)C(C)C)[C@@H](C)CC)[C@@H](C)O)[C@@H](C)CC)[C@@H](C)CC)C(C)C)C(C)C

These binders were tested against T1, CRF1R receptor (UniProt P34998 24-415, limits assumed) (assay: cell-based or functional assay).
T1 sequence (looked up): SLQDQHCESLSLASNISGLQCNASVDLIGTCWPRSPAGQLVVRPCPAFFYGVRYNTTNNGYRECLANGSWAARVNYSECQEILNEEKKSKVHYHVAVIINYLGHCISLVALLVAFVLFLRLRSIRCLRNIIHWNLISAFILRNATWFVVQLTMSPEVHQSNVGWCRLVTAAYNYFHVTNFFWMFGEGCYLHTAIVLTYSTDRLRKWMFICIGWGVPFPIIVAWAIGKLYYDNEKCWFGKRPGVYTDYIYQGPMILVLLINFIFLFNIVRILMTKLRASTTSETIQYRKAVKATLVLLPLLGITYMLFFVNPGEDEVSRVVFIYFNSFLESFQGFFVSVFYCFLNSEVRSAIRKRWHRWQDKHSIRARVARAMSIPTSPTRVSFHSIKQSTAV

Binder | EC50 | Emax (% I)
B1 | 196 nM | 50%
B2 | 73.4 nM | 70%
B3 | 39.5 nM | 66%
B4 | 152 nM | 58%
B5 |  | 32%
B6 | 22.5 nM | 79%

These binders were tested against human corticotropin-releasing factor 2a (CRF2a receptor) (human), Q13324 (assay: cell-based or functional assay).
human corticotropin-releasing factor 2a (CRF2a receptor) (human), Q13324, sequence (Q13324 20-411): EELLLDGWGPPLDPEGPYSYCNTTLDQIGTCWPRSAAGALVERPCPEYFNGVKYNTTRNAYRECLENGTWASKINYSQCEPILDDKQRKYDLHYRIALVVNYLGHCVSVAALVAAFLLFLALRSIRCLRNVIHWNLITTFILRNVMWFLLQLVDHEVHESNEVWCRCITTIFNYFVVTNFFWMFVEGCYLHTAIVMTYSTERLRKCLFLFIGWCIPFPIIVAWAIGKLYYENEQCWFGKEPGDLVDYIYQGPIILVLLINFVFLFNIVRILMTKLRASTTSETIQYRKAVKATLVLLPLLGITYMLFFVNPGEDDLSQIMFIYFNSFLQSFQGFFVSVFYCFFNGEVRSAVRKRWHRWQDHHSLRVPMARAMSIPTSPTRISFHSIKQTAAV

Binder | EC50 [nM] (cAMP)
B1 | 0.14 nM
B2 | 0.09 nM
B3 | 0.07 nM
B4 | 0.08 nM
B5 | 0.27 nM
B6 | 0.18 nM
